Results taken from US20130005646A1 (Novo Nordisk, published 2013).
Starred links: 1 amine or outer side, 2 acyl side, 3 side chain; linkers in the order of their positions; H or OH if unused. Positions of bridges follow the written chain, without caps; N, C: chain ends. *: point of attachment. X1 = (S)‑4‑Carboxy‑4‑(19-carboxynonadecanoylamino)butyryl, O=C(O)CCCCCCCCCCCCCCCCCCC(=O)N[C@@H](CCC(=O)*)C(=O)O; C20 diacid = O=C(O)CCCCCCCCCCCCCCCCCCC(=O)*; γGlu = O=C(O)[C@H](CCC(=O)[*:2])N[*:1]

Key:
Assay in all cases: cell-based or functional assay
[1] = target: T1, human amylin 3(a) receptor (human calcitonin receptor + RAMP-3) (human, UniProt P30988 25-474; O60896 24-148)
T1 sequence (looked up) 1: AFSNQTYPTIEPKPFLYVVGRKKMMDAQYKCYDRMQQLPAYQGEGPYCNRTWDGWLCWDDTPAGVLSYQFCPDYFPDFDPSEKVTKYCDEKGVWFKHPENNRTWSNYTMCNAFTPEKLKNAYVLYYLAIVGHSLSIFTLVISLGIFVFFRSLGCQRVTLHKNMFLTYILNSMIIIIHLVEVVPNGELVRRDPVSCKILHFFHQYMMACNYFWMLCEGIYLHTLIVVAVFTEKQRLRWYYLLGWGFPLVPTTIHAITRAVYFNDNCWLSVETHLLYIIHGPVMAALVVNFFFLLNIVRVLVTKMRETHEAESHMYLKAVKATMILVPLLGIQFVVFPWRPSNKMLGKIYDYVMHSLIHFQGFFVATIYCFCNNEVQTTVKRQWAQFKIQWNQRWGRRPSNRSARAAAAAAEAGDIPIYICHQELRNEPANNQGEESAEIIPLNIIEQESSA
T1 sequence (looked up) 2: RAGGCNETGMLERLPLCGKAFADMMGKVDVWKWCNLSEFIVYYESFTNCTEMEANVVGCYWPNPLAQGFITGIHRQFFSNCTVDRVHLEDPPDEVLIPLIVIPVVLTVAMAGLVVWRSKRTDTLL

[2] = target: T2, human calcitonin (a) receptor (human, UniProt P30988 25-474)
T2 sequence (looked up): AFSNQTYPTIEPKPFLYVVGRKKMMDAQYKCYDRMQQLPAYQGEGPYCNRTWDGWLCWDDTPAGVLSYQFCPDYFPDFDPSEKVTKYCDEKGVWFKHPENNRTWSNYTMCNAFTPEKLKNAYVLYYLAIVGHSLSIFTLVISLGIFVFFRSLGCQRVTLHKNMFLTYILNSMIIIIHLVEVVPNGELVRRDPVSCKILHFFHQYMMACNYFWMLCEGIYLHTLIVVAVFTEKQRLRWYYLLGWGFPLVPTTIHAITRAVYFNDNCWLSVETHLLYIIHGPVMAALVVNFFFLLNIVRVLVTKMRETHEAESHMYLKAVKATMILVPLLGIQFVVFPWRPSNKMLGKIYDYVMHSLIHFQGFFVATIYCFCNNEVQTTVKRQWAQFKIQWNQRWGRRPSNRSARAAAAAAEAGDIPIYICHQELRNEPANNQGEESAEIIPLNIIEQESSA

[3] = target: T3, rat calcitonin (a) receptor (rat, UniProt P32214 25-516)
T3 sequence (looked up): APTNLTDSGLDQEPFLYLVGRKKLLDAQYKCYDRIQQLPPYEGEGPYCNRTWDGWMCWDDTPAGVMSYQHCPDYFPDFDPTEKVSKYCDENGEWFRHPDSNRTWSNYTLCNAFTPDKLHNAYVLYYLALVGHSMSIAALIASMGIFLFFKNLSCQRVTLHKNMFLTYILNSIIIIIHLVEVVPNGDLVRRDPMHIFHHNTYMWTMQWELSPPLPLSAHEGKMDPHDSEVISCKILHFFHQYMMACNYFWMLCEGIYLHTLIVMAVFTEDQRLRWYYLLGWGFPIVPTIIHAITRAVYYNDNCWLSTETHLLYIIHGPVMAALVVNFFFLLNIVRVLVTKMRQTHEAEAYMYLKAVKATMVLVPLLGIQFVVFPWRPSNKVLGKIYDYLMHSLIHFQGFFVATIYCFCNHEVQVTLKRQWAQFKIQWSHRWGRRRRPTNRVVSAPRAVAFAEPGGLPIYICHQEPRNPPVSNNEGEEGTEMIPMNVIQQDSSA

[4] = target: T4, rat amylin 3(a) receptor (rat calcitonin(a) receptor + rat RAMP3) (rat, UniProt P32214 25-516; Q9JJ73 23-147)
T4 sequence (looked up) 1: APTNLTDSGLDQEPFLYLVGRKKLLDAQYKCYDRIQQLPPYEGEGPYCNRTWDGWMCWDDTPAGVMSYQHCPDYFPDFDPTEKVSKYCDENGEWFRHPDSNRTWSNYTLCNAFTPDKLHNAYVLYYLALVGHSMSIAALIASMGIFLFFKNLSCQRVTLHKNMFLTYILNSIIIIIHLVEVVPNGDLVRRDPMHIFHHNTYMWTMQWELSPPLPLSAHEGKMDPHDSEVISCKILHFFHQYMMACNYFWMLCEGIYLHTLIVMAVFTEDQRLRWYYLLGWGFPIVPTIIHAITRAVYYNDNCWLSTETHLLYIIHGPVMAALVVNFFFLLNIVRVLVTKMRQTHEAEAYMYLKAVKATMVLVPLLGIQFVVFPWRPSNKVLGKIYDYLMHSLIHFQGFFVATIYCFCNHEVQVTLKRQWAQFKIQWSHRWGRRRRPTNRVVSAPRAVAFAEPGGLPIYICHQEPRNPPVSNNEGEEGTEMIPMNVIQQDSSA
T4 sequence (looked up) 2: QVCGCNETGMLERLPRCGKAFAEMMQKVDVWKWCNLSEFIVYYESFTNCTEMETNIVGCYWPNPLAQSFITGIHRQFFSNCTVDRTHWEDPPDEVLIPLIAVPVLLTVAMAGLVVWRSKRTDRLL

B1: N-alpha-[(S)-4-Carboxy-4-(19-carboxynonadecanoylamino)butyryl]-[His1,Glu14,Arg17,Pro37]-pramlintide (peptide)
peptide: X1-HCNTATCATQRLAEFLRHSSNNFGPILPPTNVGSNTP-NH2
modifications: disulfide 2-7
SMILES: CC[C@H](C)[C@H](NC(=O)[C@@H]1CCCN1C(=O)CNC(=O)[C@H](Cc1ccccc1)NC(=O)[C@H](CC(N)=O)NC(=O)[C@H](CC(N)=O)NC(=O)[C@H](CO)NC(=O)[C@H](CO)NC(=O)[C@H](Cc1c[nH]cn1)NC(=O)[C@H](CCCNC(=N)N)NC(=O)[C@H](CC(C)C)NC(=O)[C@H](Cc1ccccc1)NC(=O)[C@H](CCC(=O)O)NC(=O)[C@H](C)NC(=O)[C@H](CC(C)C)NC(=O)[C@H](CCCNC(=N)N)NC(=O)[C@H](CCC(N)=O)NC(=O)[C@@H](NC(=O)[C@H](C)NC(=O)[C@@H]1CSSC[C@H](NC(=O)[C@H](Cc2c[nH]cn2)NC(=O)CC[C@H](NC(=O)CCCCCCCCCCCCCCCCCCC(=O)O)C(=O)O)C(=O)N[C@@H](CC(N)=O)C(=O)N[C@@H]([C@@H](C)O)C(=O)N[C@@H](C)C(=O)N[C@@H]([C@@H](C)O)C(=O)N1)[C@@H](C)O)C(=O)N[C@@H](CC(C)C)C(=O)N1CCC[C@H]1C(=O)N1CCC[C@H]1C(=O)N[C@H](C(=O)N[C@@H](CC(N)=O)C(=O)N[C@H](C(=O)NCC(=O)N[C@@H](CO)C(=O)N[C@@H](CC(N)=O)C(=O)N[C@H](C(=O)N1CCC[C@H]1C(N)=O)[C@@H](C)O)C(C)C)[C@@H](C)O
B1 was tested. Which “Amylin receptor human EC50” value [1] did it give?
The value was 0.0325 nM.

And the “CTa receptor human EC50” value [2]?
The value was 0.0475 nM.

What about the “CTa receptor rat EC50” value [3] of the same binder?
The value was 0.128 nM.

What about the “Amylin receptor rat EC50” value [4] of the same binder?
The value was 0.217 nM.

B2: N-alpha-[(S)-4-Carboxy-4-(19-carboxynonadecanoylamino)butyryl]-[Glu14,His35]-pramlintide (peptide)
peptide: {C20 diacid-γGlu}-KCNTATCATQRLAEFLVHSSNNFGPILPPTNVGSHTY-NH2
modifications: disulfide 2-7
SMILES: CC[C@H](C)[C@H](NC(=O)[C@@H]1CCCN1C(=O)CNC(=O)[C@H](Cc1ccccc1)NC(=O)[C@H](CC(N)=O)NC(=O)[C@H](CC(N)=O)NC(=O)[C@H](CO)NC(=O)[C@H](CO)NC(=O)[C@H](Cc1c[nH]cn1)NC(=O)[C@@H](NC(=O)[C@H](CC(C)C)NC(=O)[C@H](Cc1ccccc1)NC(=O)[C@H](CCC(=O)O)NC(=O)[C@H](C)NC(=O)[C@H](CC(C)C)NC(=O)[C@H](CCCNC(=N)N)NC(=O)[C@H](CCC(N)=O)NC(=O)[C@@H](NC(=O)[C@H](C)NC(=O)[C@@H]1CSSC[C@H](NC(=O)[C@H](CCCCN)NC(=O)CC[C@H](NC(=O)CCCCCCCCCCCCCCCCCCC(=O)O)C(=O)O)C(=O)N[C@@H](CC(N)=O)C(=O)N[C@@H]([C@@H](C)O)C(=O)N[C@@H](C)C(=O)N[C@@H]([C@@H](C)O)C(=O)N1)[C@@H](C)O)C(C)C)C(=O)N[C@@H](CC(C)C)C(=O)N1CCC[C@H]1C(=O)N1CCC[C@H]1C(=O)N[C@H](C(=O)N[C@@H](CC(N)=O)C(=O)N[C@H](C(=O)NCC(=O)N[C@@H](CO)C(=O)N[C@@H](Cc1c[nH]cn1)C(=O)N[C@H](C(=O)N[C@@H](Cc1ccc(O)cc1)C(N)=O)[C@@H](C)O)C(C)C)[C@@H](C)O
With B2 as the binder, how does the “Amylin receptor human EC50” value [1] read?
Its value is 0.136 nM.

And the “CTa receptor human EC50” value [2]?
The value was 0.18 nM.

What about the “CTa receptor rat EC50” value [3] of the same binder?
Its value is 0.215 nM.

And the “Amylin receptor rat EC50” value [4]?
Its value is 0.138 nM.
